Publication PMC9769108, “Tuning dynamic DNA- and peptide-driven self-assembly in DNA–peptide conjugates†” (Chemical Science, 2022)
Where no end group is shown, it is not given here.

Target: the molecule itself
Assay: dynamic light scattering + atomic force microscopy; TAMg buffer, room temperature, aged 0 to 28 days; total peptide 10 μM; CD alongside

B1: ILVAGK, β-turn-forming hexapeptide (parent peptide) (peptide)
peptide: ILVAGK
modifications: not fully specified (N-terminus, C-terminus)
notes: The form used for conjugation is N3-ILVAGK-NH2; also called pure ILVAGK
binding result: binds
